Blank lines part the entries; values can stand above or below the molecule they belong to.
Assays:
Assay in all cases: cell-based or functional assay
MC3R fused to PK2 = MC3R fused to PK2 (UniProt P41968)
SSTR1 fused to PK1 = SSTR1 fused to PK1 (UniProt P30872)
PTHR2 fused to PK2 = PTHR2 fused to PK2 (UniProt P49190)
CCR6 fused to PK2 = molecular target: T1, CCR6 fused to PK2 (UniProt P51684)
T1 sequence (P51684 whole entry, species assumed, looked up): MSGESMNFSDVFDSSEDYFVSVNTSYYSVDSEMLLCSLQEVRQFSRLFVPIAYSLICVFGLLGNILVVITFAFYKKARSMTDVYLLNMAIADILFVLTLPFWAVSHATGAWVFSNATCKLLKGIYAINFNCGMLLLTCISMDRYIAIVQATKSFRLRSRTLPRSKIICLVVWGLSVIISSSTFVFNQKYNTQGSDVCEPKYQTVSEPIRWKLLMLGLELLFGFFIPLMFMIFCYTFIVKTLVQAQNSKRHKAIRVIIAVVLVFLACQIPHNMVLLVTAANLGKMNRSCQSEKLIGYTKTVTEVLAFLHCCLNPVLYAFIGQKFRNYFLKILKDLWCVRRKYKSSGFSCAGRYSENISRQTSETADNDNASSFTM

CCR6 fused to PK1 = molecular target: T2, CCR6 fused to PK1 (UniProt P51684)
T2 sequence (looked up): T1 sequence (P51684 whole entry, species assumed, looked up)

SALPR fused to PK2 = SALPR fused to PK2 (UniProt Q9NSD7)
SSTR4 fused to PK2 = SSTR4 fused to PK2 (UniProt P31391)
SSTR4 fused to PK1 = SSTR4 fused to PK1 (UniProt P31391)
SSTR1 fused to PK2 = SSTR1 fused to PK2 (UniProt P30872)
CCR4 fused to PK1 = molecular target: T3, CCR4 fused to PK1 (UniProt P51679)
T3 sequence (looked up): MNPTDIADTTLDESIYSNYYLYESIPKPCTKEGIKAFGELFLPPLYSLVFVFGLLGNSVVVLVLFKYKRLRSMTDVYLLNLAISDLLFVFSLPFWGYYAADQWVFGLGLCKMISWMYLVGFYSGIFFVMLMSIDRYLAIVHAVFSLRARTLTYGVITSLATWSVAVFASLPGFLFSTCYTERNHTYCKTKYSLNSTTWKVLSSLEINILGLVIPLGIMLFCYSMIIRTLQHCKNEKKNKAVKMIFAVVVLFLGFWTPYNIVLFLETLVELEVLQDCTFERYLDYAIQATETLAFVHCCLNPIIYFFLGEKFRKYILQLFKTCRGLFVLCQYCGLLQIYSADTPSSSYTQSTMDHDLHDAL

CCR4 fused to PK2 = molecular target: T4, CCR4 fused to PK2 (UniProt P51679)
T4 sequence (P51679 whole entry, species assumed, looked up): T3 sequence (looked up)

CRHR2 fused to PK2 = molecular target: T5, CRHR2 fused to PK2 (UniProt Q13324)
T5 sequence (Q13324 whole entry, species assumed, looked up): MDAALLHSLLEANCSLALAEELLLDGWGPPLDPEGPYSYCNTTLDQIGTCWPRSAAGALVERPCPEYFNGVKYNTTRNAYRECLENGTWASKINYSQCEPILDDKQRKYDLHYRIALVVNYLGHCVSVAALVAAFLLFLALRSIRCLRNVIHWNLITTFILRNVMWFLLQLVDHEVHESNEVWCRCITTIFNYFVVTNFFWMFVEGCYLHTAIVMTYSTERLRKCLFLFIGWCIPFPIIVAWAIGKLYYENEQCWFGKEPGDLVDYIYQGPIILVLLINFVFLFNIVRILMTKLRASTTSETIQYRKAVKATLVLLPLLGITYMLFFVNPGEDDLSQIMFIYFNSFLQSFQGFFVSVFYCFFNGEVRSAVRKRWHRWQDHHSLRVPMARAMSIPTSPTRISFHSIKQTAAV

CRHR2 fused to PK1 = molecular target: T6, CRHR2 fused to PK1 (UniProt Q13324)
T6 sequence (looked up): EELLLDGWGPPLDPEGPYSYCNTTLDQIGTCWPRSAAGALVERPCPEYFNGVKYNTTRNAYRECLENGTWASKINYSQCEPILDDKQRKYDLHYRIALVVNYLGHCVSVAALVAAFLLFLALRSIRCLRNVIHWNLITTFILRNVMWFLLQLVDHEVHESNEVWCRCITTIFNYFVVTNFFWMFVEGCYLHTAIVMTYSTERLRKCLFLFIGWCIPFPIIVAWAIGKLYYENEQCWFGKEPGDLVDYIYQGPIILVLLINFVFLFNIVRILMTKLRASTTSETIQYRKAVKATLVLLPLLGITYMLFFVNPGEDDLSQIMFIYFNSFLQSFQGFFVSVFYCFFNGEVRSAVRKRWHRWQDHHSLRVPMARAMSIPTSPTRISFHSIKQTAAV

Chain of PTHR2 fused to PK2 (P49190 whole entry, the tested form may be a part): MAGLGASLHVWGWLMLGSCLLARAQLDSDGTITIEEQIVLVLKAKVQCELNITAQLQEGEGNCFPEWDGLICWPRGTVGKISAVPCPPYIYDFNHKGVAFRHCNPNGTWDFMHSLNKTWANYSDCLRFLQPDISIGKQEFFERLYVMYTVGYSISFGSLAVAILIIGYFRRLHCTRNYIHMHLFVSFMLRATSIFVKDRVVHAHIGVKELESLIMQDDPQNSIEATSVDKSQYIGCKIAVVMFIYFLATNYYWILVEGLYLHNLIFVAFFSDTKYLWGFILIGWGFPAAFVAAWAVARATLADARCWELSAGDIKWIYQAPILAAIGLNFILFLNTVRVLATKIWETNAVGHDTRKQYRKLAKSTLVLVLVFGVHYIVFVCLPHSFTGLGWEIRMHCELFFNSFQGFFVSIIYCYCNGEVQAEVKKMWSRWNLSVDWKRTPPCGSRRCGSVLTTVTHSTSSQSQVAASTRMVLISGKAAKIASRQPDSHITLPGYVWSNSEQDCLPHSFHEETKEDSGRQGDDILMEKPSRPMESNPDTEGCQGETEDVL
Chain of SSTR1 fused to PK1 (P30872 whole entry, the tested form may be a part): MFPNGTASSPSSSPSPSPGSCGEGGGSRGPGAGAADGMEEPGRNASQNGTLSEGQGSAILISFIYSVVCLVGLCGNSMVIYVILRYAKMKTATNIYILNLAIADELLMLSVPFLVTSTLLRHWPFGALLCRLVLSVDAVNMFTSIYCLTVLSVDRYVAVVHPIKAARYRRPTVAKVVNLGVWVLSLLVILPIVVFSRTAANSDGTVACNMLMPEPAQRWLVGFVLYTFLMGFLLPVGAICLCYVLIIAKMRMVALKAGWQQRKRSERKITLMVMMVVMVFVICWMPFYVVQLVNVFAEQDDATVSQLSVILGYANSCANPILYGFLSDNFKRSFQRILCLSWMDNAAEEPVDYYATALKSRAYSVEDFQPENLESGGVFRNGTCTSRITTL
Chain of MC3R fused to PK2 (P41968 whole entry, the tested form may be a part): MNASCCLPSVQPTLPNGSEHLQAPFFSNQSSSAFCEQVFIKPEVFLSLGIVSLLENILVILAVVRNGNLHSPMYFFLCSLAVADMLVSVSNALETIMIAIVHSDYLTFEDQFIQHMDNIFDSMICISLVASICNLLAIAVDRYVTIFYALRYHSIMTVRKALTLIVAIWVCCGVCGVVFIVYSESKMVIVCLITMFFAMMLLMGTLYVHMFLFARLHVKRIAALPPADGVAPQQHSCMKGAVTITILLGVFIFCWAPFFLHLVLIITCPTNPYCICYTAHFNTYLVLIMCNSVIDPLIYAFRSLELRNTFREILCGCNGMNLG
Chain of SSTR4 fused to PK2 (P31391 whole entry, the tested form may be a part): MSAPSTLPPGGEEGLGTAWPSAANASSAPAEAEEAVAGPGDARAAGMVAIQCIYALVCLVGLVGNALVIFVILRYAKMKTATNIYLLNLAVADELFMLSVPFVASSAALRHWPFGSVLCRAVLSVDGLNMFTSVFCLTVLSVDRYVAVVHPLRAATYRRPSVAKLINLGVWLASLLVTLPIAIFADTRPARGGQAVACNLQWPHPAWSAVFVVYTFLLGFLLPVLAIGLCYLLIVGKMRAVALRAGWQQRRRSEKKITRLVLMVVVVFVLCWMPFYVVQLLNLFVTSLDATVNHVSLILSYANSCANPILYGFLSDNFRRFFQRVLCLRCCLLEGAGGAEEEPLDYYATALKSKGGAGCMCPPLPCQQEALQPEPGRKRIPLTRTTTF
Chain of SSTR4 fused to PK1 (P31391 whole entry, the tested form may be a part): as above
Chain of SALPR fused to PK2 (Q9NSD7 whole entry, the tested form may be a part): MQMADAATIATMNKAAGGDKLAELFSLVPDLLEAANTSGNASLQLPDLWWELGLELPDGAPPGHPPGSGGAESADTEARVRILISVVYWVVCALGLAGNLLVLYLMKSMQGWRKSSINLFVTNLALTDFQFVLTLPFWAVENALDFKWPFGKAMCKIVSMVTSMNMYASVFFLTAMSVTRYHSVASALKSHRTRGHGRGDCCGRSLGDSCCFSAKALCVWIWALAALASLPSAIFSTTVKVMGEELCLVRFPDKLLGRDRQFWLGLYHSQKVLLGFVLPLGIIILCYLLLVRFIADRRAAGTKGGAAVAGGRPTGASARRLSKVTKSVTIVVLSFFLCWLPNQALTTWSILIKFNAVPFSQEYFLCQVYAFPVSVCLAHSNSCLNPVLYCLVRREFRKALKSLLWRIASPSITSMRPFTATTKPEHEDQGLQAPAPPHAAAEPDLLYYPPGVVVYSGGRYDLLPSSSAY
Chain of SSTR1 fused to PK2 (P30872 whole entry, the tested form may be a part): as the sequence (P30872 whole entry, the tested form may be a part) above

- Fold induct. (arrestin recruitment, beta-galactosidase EFC, saturating ligand) (MC3R fused to PK2): 3.2 fold
Molecule: aMSH (from UniProt P01189 138-150) (peptide)

- Fold induct. (arrestin recruitment, beta-galactosidase EFC, saturating ligand) (SSTR1 fused to PK1): 1 fold
Molecule: TYR-SRIF14 (peptide)

- Fold induct. (arrestin recruitment, beta-galactosidase EFC, saturating ligand) (PTHR2 fused to PK2): 72.9 fold
Molecule: PTH (1-34) (from UniProt P01270 32-65) (peptide)

- Fold induct. (arrestin recruitment, beta-galactosidase EFC, saturating ligand) (CCR6 fused to PK2): 6.5 fold
- Fold induct. (arrestin recruitment, beta-galactosidase EFC, saturating ligand) (CCR6 fused to PK1): 1.4 fold
Molecule: CCL20 (from UniProt P78556 27-96) (ligand)

- Fold induct. (arrestin recruitment, beta-galactosidase EFC, saturating ligand) (SALPR fused to PK2): 1.8 fold
Molecule: Relaxin-3 (from UniProt Q8WXF3 26-142) (ligand)

- Fold induct. (arrestin recruitment, beta-galactosidase EFC, saturating ligand) (PTHR2 fused to PK2): 2.8 fold
B1: TIP39 (peptide, UniProt Q96A98 62-100, looked up)
peptide: SLALADDAAFRERARLLAALERRHWLNSYMHKLLVLDAP

- Fold induct. (arrestin recruitment, beta-galactosidase EFC, saturating ligand) (SSTR1 fused to PK1): 1.2 fold
- Fold induct. (arrestin recruitment, beta-galactosidase EFC, saturating ligand) (SSTR4 fused to PK2): 1.6 fold
- Fold induct. (arrestin recruitment, beta-galactosidase EFC, saturating ligand) (SSTR4 fused to PK1): 1.3 fold
- Fold induct. (arrestin recruitment, beta-galactosidase EFC, saturating ligand) (SSTR1 fused to PK2): 1.3 fold
B2: Somatostatin-28 (peptide, UniProt P61278 89-116, looked up)
peptide: SANSNPAMAPRERKAGCKNFFWKTFTSC

- Fold induct. (arrestin recruitment, beta-galactosidase EFC, saturating ligand) (CCR4 fused to PK1): 18.9 fold
- Fold induct. (arrestin recruitment, beta-galactosidase EFC, saturating ligand) (CCR4 fused to PK2): 3 fold
B3: CCL22 (ligand, UniProt O00626 25-93, looked up)
chain: GPYGANMEDSVCCRDYVRYRLPLRVVKHFYWTSDSCPRPGVVLLTFRDKEICADPRVPWVKMILNKLSQ

- Fold induct. (arrestin recruitment, beta-galactosidase EFC, saturating ligand) (CRHR2 fused to PK2): 17.4 fold
- Fold induct. (arrestin recruitment, beta-galactosidase EFC, saturating ligand) (CRHR2 fused to PK1): 13.1 fold
B4: Sauvagine (peptide, UniProt P01144 1-40, looked up)
peptide: QGPPISIDLSLELLRKMIEIEKQEKEKQQAANNRLLLDTI

Reference: patent US20090098588A1
